Biological target: T1, TFEB (purified protein coupled to the SPR chip) (UniProt P19484 1-476)
T1 chain: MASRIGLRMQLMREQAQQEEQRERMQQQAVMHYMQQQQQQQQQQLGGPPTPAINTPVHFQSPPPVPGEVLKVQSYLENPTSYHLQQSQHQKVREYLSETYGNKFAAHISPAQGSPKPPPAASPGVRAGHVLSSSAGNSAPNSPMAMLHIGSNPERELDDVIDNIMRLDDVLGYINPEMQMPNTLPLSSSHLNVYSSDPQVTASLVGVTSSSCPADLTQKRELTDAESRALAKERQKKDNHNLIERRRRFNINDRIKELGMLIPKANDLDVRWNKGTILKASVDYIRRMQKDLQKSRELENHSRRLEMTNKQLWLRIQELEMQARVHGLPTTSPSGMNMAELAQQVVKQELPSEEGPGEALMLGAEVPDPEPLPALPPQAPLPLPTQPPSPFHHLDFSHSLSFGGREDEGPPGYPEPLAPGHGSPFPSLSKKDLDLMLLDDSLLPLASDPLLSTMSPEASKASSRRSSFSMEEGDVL
Experiment: SPR; TFEB immobilised on a CM5 chip by amine coupling; ROCK1 injected at 312.5 to 5000 nM for 90 s; Biacore T200
Conditions: both partners purified

B1: ROCK1 (protein injected in SPR) (enzyme)
chain: STGDSFETRFEKMDNLLRDPKSEVNSDCLLDGLDALVYDLDFPALRKNKNIDNFLSRYKDTINKIRDLRMKAEDYEVVKVIGRGAFGEVQLVRHKSTRKVYAMKLLSKFEMIKRSDSAFFWEERDIMAFANSPWVVQLFYAFQDDRYLYMVMEYMPGGDLVNLMSNYDVPEKWARFYTAEVVLALDAIHSMGFIHRDVKPDNMLLDKSGHLKLADFGTCMKMNKEGMVRCDTAVGTPDYISPEVLKSQGGDGYYGRECDWWSVGVFLYEMLVGDTPFYADSLVGTYSKIMNHKNSLTFPDDNDISKEAKNLICAFLTDREVRLGRNGVEEIKRHLFFKNDQWAWETLRDTVAPVVPDLSSDIDTSNFDDLEEDKGEEETFPIPKAFVGNQLPFVGFTYYSNRRYLSSANPNDNRTSSNADKSLQESLQKTIYKLEEQLHNEMQLKDEMEQKCRTSNIKLDKIMKELDEEGNQRRNLESTVSQIEKEKMLLQHRINEYQRKAEQENEKRRNVENEVSTLKDQLEDLKKVSQNSQLANEKLSQLQKQLEEANDLLRTESDTAVRLRKSHTEMSKSISQLESLNRELQERNRILENSKSQTDKDYYQLQAILEAERRDRGHDSEMIGDLQARITSLQEEVKHLKHNLEKVEGERKEAQDMLNHSEKEKNNLEIDLNYKLKSLQQRLEQEVNEHKVTKARLTDKHQSIEEAKSVAMCEMEKKLKEEREAREKAENRVVQIEKQCSMLDVDLKQSQQKLEHLTGNKERMEDEVKNLTLQLEQESNKRLLLQNELKTQAFEADNLKGLEKQMKQEINTLLEAKRLLEFELAQLTKQYRGNEGQMRELQDQLEAEQYFSTLYKTQVKELKEEIEEKNRENLKKIQELQNEKETLATQLDLAETKAESEQLARGLLEEQYFELTQESKKAASRNRQEITDKDHTVSRLEEANSMLTKDIEILRRENEELTEKMKKAEEEYKLEKEEEISNLKAAFEKNINTERTLKTQAVNKLAEIMNRKDFKIDRKKANTQDLRKKEKENRKLQLELNQEREKFNQMVVKHQKELNDMQAQLVEECAHRNELQMQLASKESDIEQLRAKLLDLSDSTSVASFPSADETDGNLPESRIEGWLSVPNRGNIKRYGWKKQYVVVSSKKILFYNDEQDKEQSNPSMVLDIDKLFHVRPVTQGDVYRAETEEIPKIFQILYANEGECRKDVEMEPVQQAEKTNFQNHKGHEFIPTLYHFPANCDACAKPLWHVFKPPPALECRRCHVKCHRDHLDKKEDLICPCKVSYDVTSARDMLLLACSQDEQKKWVTHLVKKIPKNPPSGFVRASPRTLSTRSTANQSFRKVVKNTSGKTS
  Kd: 1610 nM
